From the RNAGym collection of RNA variant scans (doi:10.1093/molbev/msab373) come the findings set out here.

B1: Azoarcus group I ribozyme (parent)
chain: GUGCCUUGCGCCGGGAAACCACGCAAGGGAUGGUGUCAAAUUCGGCGAAACCUAAGCGCCCGCCCGGGCGUAUGGCAACGCCGAGCCAAGCUUCGGCGCCUGCGCCGAUGAAGGUGUAGAGACUAGACGGCACCCACCUAAGGCAAACGCUAUGGUGAAGGCAUAGUCCAGGGAGUGGCGAAAGUCACACAAACCGG

In the data set the parent is B1. As to the kind of experiment: reverse-splicing fitness (ratio to wild type); higher = more active; in vitro selection; Mg2+ level not given. Summed up:
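An in vitro group I ribozyme library with randomized positions was T7-transcribed and gel-purified. In triplicate, 10 pmol RNA in EPPS pH 7.5 was reacted with 50 pmoles of a 30-nt RNA substrate for 1 h at 37 °C across several added MgCl2 levels (1–48 mM), then stopped with EDTA. Products were reverse transcribed from a substrate-complementary primer, PCR-amplified and sequenced (HiSeq 4000). Fitness is a variant's read proportion after selection over that before, normalised to wild type.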
Regarding C82U A111C A120C A145G C150A U176G, the reverse-splicing fitness came out at 0.00689.
As for C82U A145G C150A C169A, the reverse-splicing fitness was determined as 0.0109.
In the case of C82G A111C A145C C150A C169G, the reverse-splicing fitness was 0.00856.
As for A120C A145G C150G C169G U176C, the reverse-splicing fitness was 0.0135.
Turning to C82A A120G C150G C169A, the reverse-splicing fitness came to 0.00866.
For the variant C82G A111U A120G A145C C150A C169A U176C, the reverse-splicing fitness came to 0.00752.
For the variant C82A A111U A120G A145G U176G, the reverse-splicing fitness was found to be 0.00714.
Regarding C82A A111C A145U C169U U176A, the reverse-splicing fitness came to 0.0149.
With C82A A111G A120U A145C C150U U176A, the reverse-splicing fitness came out at 0.00447.
As to A111G A120G A145U C150A U176G, the reverse-splicing fitness was 0.00541.
Consider A111G A145G C150A U176G, for which the reverse-splicing fitness is 0.109.
To C82G A111G A145C C169U U176C belongs 0.0106; to C82A A120U A145C C150G C169G U176C, 0.00192.
To C82G A111G A120C A145U C150U C169U U176A belongs 0.0143; to C82A A111U A120U A145C C169U, 0.00338.
On to A111U A145G C150U C169G U176G, for which the reverse-splicing fitness was determined as 0.00671.
On to C82U A111U A145U C150G C169A, for which the reverse-splicing fitness came to 0.00958.
With C82G A111U A120G A145U C150A C169G U176G, the reverse-splicing fitness came to 0.00501.
With C82G A111U A120G A145U C150A C169G U176A the figure was 0.0162; with C82U A120G A145C C150G C169U, 0.00822; with C82A A111C C150U C169G U176C, 0.0175.
A111U A120C A145G C150G C169G U176G: the reverse-splicing fitness turned out to be 0.00555.
With C82A A111U C169G U176A, the reverse-splicing fitness amounted to 0.0162.
To C82G A120G A145G C150G belongs 0.00886; to A111U A120C C169U, 0.174; to C82G A111C A120C C150G U176G, 0.00427.
C82U A111C A120U C150U C169A U176G: the reverse-splicing fitness was determined as 0.00291.
Turning to C82G A111G A145G C169G, the reverse-splicing fitness came to 0.0101.
Consider C82U A120C A145G C150A U176A, for which the reverse-splicing fitness was determined as 0.0152.
With C82U A111U A120U U176A the figure was 0.00769.
Turning to C82U A111G C169G, the reverse-splicing fitness was 0.0092.
On to C82A A111G A120U A145U C150G U176C, for which the reverse-splicing fitness was determined as 0.00587.
C82G A120U U176G: the reverse-splicing fitness amounted to 0.0201.
As for C82U A111U A145G C150A C169G, the reverse-splicing fitness was found to be 0.00847.
To A111G A145C C169A U176G belongs 0.00444.
Take C82G A111C A145C C169G U176A: the reverse-splicing fitness was 0.0274.
For the variant C82U A111C C150A C169A U176C, the reverse-splicing fitness is 0.0175.
In the case of C82G A111U A120G A145U C150G U176A, the reverse-splicing fitness was determined as 0.00634.
As to C82U A111G A120U A145C C150U C169U, the reverse-splicing fitness came to 0.00249.
With C82A A120C A145U C150A the figure was 0.0195.
Take A120U C150A: the reverse-splicing fitness was found to be 0.245.
In the case of A111G A145C C150A C169U U176A, the reverse-splicing fitness turned out to be 0.0152.
As for C82U A111U A120U A145G C150G U176G, the reverse-splicing fitness turned out to be 0.00324.
For the variant C82A A111C A120C A145G C150A C169U, the reverse-splicing fitness turned out to be 0.00994.
Take C82A A111G A145G C150U C169U U176A: the reverse-splicing fitness turned out to be 0.0138.
With C82G A111G A120G A145C C169G U176C the figure was 0.0207.
With A111C A120G A145G C169U U176A the figure was 0.0413; with C82A A120U A145C C150A, 0.00898.
In the case of A120G A145C C150G C169G U176G, the reverse-splicing fitness came out at 0.00456.
Consider C82U A111C A120U A145C C150A C169U, for which the reverse-splicing fitness came to 0.00301.
To C82A A111U A120C C150G C169U U176A belongs 0.00757.
To C82G A111C A145G C150G C169A U176A belongs 0.0115.
For the variant C82U A120U A145C C150G U176G, the reverse-splicing fitness was determined as 0.00242.
For the variant C82U A120C A145G C150G U176A, the reverse-splicing fitness came out at 0.00924.
To C82A A145U C150G U176G belongs 0.0081; to A111C A145U C150A C169G U176A, 0.0133; to A111U A120U A145G C150A C169G, 0.00946.
Consider C82A A111C A120C A145U C150U C169A U176C, for which the reverse-splicing fitness came out at 0.0129.
C82A A111C A145G C150U C169A U176C: the reverse-splicing fitness worked out at 0.0148.
On to C82G A111G A120C A145C C169A U176A, for which the reverse-splicing fitness was found to be 0.0154.
On to C82A A145G C150G C169G U176C, for which the reverse-splicing fitness amounted to 0.0134.
For the variant C82G A120C A145U C150U, the reverse-splicing fitness is 0.11.
For C82G A120G A145C C150G C169A U176G, the reverse-splicing fitness came out at 0.00487.
For A120G A145G C150G C169G, the reverse-splicing fitness was 0.106.
In the case of C82U A111G A120G A145U C150G C169U, the reverse-splicing fitness is 0.00832.
In the case of U176G, the reverse-splicing fitness was 0.348.
As to A111U A120C A145G, the reverse-splicing fitness worked out at 0.569.
With C82U A111U A120G C150U C169A U176C, the reverse-splicing fitness came to 0.0129.
To C82U A120G A145C C169A belongs 0.014.
To A111C A120U A145C C150G U176A belongs 0.0207; to C82U A111U A120U C150U C169A U176A, 0.0038.
To C82A A111U A145C C150A C169G U176G belongs 0.00831; to A111C A120U A145U C150G U176G, 0.00462; to A111U A145U C169A, 0.0323.
In the case of A111C A120U C150A U176A, the reverse-splicing fitness came out at 0.0268.
To C82G A111G A120G C169U U176C belongs 0.0198.
In the case of C82U A111G A145G C169U U176G, the reverse-splicing fitness turned out to be 0.0046.
C82U A111U A145G C150U: the reverse-splicing fitness amounted to 0.235.
Consider C82U A111U A120G A145G C150U C169U U176A, for which the reverse-splicing fitness is 0.0194.
For C82A A120C C169A U176G, the reverse-splicing fitness was 0.00458.
To C82G A111C A120C A145U C169U U176G belongs 0.00641.
On to C82A A111G C150U C169A U176A, for which the reverse-splicing fitness is 0.0185.
Regarding C82G A111G A145G C150G C169A U176G, the reverse-splicing fitness worked out at 0.0094.
Take C82A A111U A120C A145C C150A U176G: the reverse-splicing fitness is 0.00578.
